PMC7948647, “Region 4 of the RNA polymerase σ subunit counteracts pausing during initial transcription”

How the values were obtained:
[1] = biological target: RNAP core from E. coli (EcoRNAP core) (E. coli) (UniProt P0A8V2)
[2] = biological target: RNAP core from E. coli (EcoRNAP core) (E. coli) (UniProt P0A8V2); remark: listed apart in the source
[3] = biological target: full-length σ^70 subunit of E. coli RNA polymerase (E. coli) (UniProt P00579)
[4] = biological target: RNA polymerase core (EcoRNAP) (Escherichia coli, UniProt P0A7Z4;P0A8V2;P0A8T7;P0A800 1-329;1-1342;1-1407;2-91); assay: pull-down (Ni-agarose RNA retention); 1 M NaCl wash; 40 mM HEPES pH 7.9, 5 mM MgCl2, 50 mM NaCl, 5% glycerol; binding to Ni-NTA at 18 C, washes with 250 mM NaCl (1 M for core controls), labeling at 22 C; conditions: protein: recombinant; tags: C-terminal 6xHis on rpoC; chain copies: 2;1;1;1; 9-bp downstream duplex, 10-nt 3' template overhang; 13-nt RNA with unpaired 5' end

RNAP core from E. coli (EcoRNAP core) (E. coli), sequence (P0A8V2 whole entry, looked up): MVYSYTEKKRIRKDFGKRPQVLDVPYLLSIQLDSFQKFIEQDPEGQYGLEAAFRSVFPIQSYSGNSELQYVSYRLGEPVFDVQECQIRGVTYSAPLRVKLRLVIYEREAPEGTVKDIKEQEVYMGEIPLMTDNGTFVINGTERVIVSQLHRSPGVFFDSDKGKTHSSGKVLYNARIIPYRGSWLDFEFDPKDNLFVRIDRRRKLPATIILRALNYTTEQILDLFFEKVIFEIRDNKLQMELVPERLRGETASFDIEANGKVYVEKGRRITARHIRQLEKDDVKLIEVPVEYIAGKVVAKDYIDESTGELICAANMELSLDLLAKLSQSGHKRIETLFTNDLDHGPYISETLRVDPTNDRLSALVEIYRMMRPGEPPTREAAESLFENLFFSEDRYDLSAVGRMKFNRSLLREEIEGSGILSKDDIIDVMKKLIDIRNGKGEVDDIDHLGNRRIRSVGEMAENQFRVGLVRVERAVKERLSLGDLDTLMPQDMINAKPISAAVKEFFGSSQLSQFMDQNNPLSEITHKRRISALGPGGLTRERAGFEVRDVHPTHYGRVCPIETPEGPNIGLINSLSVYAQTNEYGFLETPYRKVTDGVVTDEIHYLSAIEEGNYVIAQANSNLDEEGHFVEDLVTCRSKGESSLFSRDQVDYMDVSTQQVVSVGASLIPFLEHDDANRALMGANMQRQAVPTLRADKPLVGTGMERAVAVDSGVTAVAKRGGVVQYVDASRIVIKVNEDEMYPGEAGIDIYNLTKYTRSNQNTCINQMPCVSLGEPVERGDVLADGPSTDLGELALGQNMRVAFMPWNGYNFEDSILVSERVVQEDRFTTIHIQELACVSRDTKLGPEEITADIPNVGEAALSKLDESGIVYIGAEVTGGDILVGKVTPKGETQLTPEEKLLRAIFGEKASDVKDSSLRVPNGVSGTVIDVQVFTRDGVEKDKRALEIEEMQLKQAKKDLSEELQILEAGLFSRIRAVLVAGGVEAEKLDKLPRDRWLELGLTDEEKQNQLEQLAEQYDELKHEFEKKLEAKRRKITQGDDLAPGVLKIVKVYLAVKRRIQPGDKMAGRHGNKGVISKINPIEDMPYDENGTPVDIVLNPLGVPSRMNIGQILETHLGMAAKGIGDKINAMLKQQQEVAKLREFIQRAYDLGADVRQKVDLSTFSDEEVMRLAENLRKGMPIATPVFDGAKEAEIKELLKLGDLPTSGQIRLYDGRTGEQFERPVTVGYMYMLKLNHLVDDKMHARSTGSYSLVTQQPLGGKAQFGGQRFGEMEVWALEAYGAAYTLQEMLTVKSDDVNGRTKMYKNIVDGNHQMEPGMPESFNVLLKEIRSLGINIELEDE
full-length σ^70 subunit of E. coli RNA polymerase (E. coli), sequence (P00579 whole entry): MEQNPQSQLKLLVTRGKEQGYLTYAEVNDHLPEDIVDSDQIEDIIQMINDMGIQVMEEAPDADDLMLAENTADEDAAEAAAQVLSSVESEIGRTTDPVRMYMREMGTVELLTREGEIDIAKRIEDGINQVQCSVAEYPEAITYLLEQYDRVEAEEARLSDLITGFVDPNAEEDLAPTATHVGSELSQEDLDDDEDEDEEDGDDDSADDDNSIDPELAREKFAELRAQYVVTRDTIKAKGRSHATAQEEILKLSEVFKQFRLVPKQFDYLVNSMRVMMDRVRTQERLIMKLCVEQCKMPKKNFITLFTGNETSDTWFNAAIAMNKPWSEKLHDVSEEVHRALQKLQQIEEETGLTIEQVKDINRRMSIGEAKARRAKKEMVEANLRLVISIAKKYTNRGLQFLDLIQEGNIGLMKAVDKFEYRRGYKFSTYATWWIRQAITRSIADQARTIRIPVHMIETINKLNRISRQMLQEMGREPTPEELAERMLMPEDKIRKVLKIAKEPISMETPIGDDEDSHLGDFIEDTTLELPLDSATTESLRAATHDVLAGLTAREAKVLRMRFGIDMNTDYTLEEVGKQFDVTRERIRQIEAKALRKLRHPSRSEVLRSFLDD

σΔ4 fragment of σ^70 (residues 1–529) (from UniProt P00579 1-529) (domain or fragment)
translocation efficiency (fraction of 5-nt RNA) in extension of the 2-nt primer GpC on the LDT scaffold [1]: < 50%

full-length σ^70 subunit of E. coli RNA polymerase (from UniProt P00579 1-613) (natural protein)
translocation efficiency (fraction of 5-nt RNA) in extension of the 2-nt primer GpC on the LDT scaffold; core alone about 40% [2]: 95%

σ_(Δ4.2) fragment of σ^70 (residues 1–553) (from UniProt P00579 1-553) (domain or fragment)
translocation efficiency (fraction of 5-nt RNA) in extension of the 2-nt primer GpC on the LDT scaffold [1]: < 50%

σ_(Δ3–4) fragment of σ^70 (residues 1–448) (from UniProt P00579 1-448) (domain or fragment)
translocation efficiency (fraction of 5-nt RNA) in extension of the 2-nt primer GpC on the LDT scaffold [1]: < 50%

B1: T4 phage coactivator protein AsiA (natural protein)
chain: MNKNIDTVREIITVASILIKFSREDIVENRANFIAFLNEIGVTHEGRKLNQNSFRKIVSELTQEDKKTLIDEFNEGFEGVYRYLEMYTNK
inhibition by 1 μM AsiA of abortive transcription by σ^70-EcoRNAP at the lacUV5 promoter (AsiA used to disrupt the pair σ4.2 of σ^70 and β-FTH of the core) [3]: 85%
inhibition by 1 μM AsiA of de novo 3-nt RNA synthesis by σ^70-EcoRNAP on the SDT2 scaffold (AsiA used to disrupt the pair σ4.2 of σ^70 and β-FTH of the core) [3]: 50%

B2: SDT scaffold + pRNA13 (mixed)
RNA: AAUUGUGAGCGGA
DNA 1: TGCAATTGTCATCCGCTCA
DNA 2: ACAATTGCA
binding result [4]: binds
